Test results taken from article PMC2873776.

Legend:
[1] = molecular target: CheAΔ289 (290–671) (T. maritima) (UniProt Q56310); assay: pulsed dipolar ESR spectroscopy
[2] = molecular target: CheA (Thermotoga maritima) (UniProt Q56310); conditions: cited from earlier work
[3] = molecular target: CheA:CheW complex (CheAΔ289 dimer with one CheW bound to each subunit) (T. maritima) (UniProt Q56310); assay: pulsed dipolar ESR spectroscopy

Chain of CheA (Thermotoga maritima) (Q56310 whole entry): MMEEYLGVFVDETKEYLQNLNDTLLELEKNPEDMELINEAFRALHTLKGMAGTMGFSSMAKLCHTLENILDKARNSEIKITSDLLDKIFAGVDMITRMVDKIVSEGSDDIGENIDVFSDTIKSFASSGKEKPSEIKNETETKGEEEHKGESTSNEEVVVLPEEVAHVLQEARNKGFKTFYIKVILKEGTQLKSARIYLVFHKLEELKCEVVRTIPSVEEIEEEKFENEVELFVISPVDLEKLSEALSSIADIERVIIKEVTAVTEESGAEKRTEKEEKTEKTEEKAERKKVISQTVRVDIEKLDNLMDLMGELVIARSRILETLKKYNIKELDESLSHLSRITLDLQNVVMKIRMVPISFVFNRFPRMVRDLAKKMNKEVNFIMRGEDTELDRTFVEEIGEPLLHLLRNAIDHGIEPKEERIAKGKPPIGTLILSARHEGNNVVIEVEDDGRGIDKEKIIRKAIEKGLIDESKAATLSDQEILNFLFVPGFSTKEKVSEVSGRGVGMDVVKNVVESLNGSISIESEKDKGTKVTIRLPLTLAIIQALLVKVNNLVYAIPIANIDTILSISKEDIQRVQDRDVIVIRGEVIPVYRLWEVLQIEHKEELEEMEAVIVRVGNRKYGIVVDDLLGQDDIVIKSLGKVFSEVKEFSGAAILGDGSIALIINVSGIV
Chain of CheW (Q56311 whole entry): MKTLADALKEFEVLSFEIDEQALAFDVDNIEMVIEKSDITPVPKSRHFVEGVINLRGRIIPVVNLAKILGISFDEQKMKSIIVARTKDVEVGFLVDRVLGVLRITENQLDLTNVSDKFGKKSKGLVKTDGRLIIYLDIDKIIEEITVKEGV

**Q.** With “CheAΔ289 (290–671) (from UniProt Q56310 290-671) (domain or fragment)” as the substance, how does the stoichiometry N [1] read?
**A.** 4

**Q.** For CheW (from UniProt Q56311), which Kd [2] is on record?
**A.** 100 nM

**Q.** With “Tm14C (Tm14: residues 40–213) (domain or fragment)” as the substance, how does the stoichiometry N (Tm14 dimer per CheA:CheW dimer) [3] read?
**A.** 1
